Measured values as given in US20240270803A1 (Daiichi Sankyo, published 2024).
Changes are numbered by the printed parent chain.

B1: peptide derivative H322AT (designed binder)
chain: DPQFGLFSKYRTPNCSQHEGMACYALYEPVCGSDMSTYANECTLCMKIREGGHNIKIIRNGPCGG
B2: peptide H223 (designed binder)
chain: B1 chain with S16T, Q17M, H18D, E19M, Y24W, L26F
B3: peptide derivative H308AT (designed binder)
chain: B1 chain with Q17D, E19A, Y24V
B4: peptide M7 (designed binder)
chain: B1 chain with Q17D, E19A, Y24V, L26F
B5: peptide H322 (designed binder)
chain: B1 chain with A39V, T43A
B6: peptide H321 (designed binder)
chain: B1 chain with Q17D, H18F, E19D, L26F, A39M, T43A
B7: peptide H228 (designed binder)
chain: B1 chain with S16G, Q17H, H18Y, E19N, M21W, Y24Q, L26F, Y27F
B8: peptide H308 (designed binder)
chain: B1 chain with Q17D, E19A, Y24V, A39E, T43V
B9: peptide derivative H321AT (designed binder)
chain: B1 chain with Q17D, H18F, E19D, L26F
B10: peptide H218 (designed binder)
chain: B1 chain with S16L, Q17K, H18S, L26Y
B11: peptide derivative H322AT_D1G_S16A (designed binder)
chain: B1 chain with D1G, S16A
B12: peptide derivative H308_D1G_S16A (designed binder)
chain: B1 chain with D1G, S16A, Q17D, E19A, Y24V, A39E, T43V
B13: peptide derivative H321AT_D1G_S16A (designed binder)
chain: B1 chain with D1G, S16A, Q17D, H18F, E19D, L26F

Each binder was assayed against T1, HTRA1 protease domain HTRA1 (cat) (human, UniProt F1N152 165-380 (bovine entry)) (assay: cell-based or functional assay).
T1 sequence (F1N152 165-380): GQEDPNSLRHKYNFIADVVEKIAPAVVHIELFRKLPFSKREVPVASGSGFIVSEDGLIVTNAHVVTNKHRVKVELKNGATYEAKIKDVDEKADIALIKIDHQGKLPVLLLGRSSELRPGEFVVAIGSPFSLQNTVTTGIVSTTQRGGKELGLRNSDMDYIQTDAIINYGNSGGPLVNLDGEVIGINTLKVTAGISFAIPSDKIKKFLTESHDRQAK

IC50 (nM) for HTRA1 (cat); decomposition rate of substrate peptide H2-Opt	Binder
45 nM	B1
41 nM	B2
49 nM	B3
43 nM	B4
50 nM	B5
48 nM	B6
71 nM	B7
37 nM	B8
46 nM	B9
72 nM	B10

These binders were tested against T2, full-length HTRA1 (HTRA1 (full)) (human, UniProt Q92743 23-480) (assay: cell-based or functional assay).
T2 sequence (Q92743 23-480): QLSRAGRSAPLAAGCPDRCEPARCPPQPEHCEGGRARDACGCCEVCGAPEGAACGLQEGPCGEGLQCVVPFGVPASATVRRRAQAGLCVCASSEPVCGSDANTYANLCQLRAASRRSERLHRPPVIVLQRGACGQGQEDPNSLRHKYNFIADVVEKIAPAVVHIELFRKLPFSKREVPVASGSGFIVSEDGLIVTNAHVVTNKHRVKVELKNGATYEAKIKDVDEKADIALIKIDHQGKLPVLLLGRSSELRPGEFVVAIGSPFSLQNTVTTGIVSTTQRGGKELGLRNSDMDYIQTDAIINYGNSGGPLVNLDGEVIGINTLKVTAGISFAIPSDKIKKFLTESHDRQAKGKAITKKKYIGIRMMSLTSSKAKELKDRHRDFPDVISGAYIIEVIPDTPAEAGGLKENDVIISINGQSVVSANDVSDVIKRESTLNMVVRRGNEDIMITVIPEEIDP

IC50 (nM) for HTRA1 (full); decomposition rate of substrate peptide H2-Opt	Binder
25 nM	B1
66 nM	B2
31 nM	B3
24 nM	B4
17 nM	B5
29 nM	B6
38 nM	B7
15 nM	B8
18 nM	B9
55 nM	B10

Biological target: T1, HTRA1 protease domain HTRA1 (cat)
Test: cell-based or functional assay
Remark: another data set of the same source

IC50 (nM) for HTRA1 (cat); decomposition rate of substrate peptide H2-Opt (n=3)	Binder
12.9 nM	B11
7.9 nM	B12
9 nM	B13

Biological target: T2, full-length HTRA1 (HTRA1 (full))
Test: cell-based or functional assay
Remark: another data set of the same source

IC50 (nM) for HTRA1 (full); decomposition rate of substrate peptide H2-Opt (n=3)	Binder
12.2 nM	B11
9.1 nM	B12
12 nM	B13
